Consider 13 proteins from patent publication US10358663B2, “Method of production of 2,4-dihydroxybutyric acid” (ADISSEO FRANCE S.A.S., priority 2010, dated 2019).

Residue numbers refer to the chain shown, from its start. In names and notes the source's numbering stands.

Type in all cases: biochemical, Escherichia coli
Substrate in data set [1]: N[C@@H](CC(=O)O)C(=O)O
Briefly: Aspartate kinase assay (ADP production coupled to NADH oxidation), His-tagged wild-type LysC. Particulars: other: His-tagged LysC, Eadie and Hofstee, pH 7.5, 30° C. As to the method:
(§1) Enzymatic assay: Aspartate or malate kinase activities were assayed by coupling ADP production in the kinase reactions to NADH oxidation in the presence of phosphoenolpyruvate, pyruvate kinase, and lactate dehydrogenase.
(§2) Aspartate (or Malate) Kinase aspartate (or malate)+ATP→4-phospho-(L)-aspartate (or 4-phospho-(L)-malate)+ADP
(§3) The assay mixture contained 50 mM Hepes (pH 7.5), 50 mM KCl, 5 mM MgCl2, 0.24 mM NADH, 0.96 mM ATP, 0.96 mM PEP, 9 μg/mL of lactate dehydrogenase (Sigma, L2500), 12.4 μg/mL pyruvate kinase (Sigma, P1506), and appropriate amounts of purified aspartate (malate) kinase. Reactions were started by adding 50 mM (L)-aspartate or (L)-malate. Enzymatic assays were carried out at 30° C. in 96-well flat bottomed microtiter plates in a final volume of 250 μL. The reactions were followed by the characteristic absorption of NADH at 340 nm in a microplate reader (BioRad 680XR).
Maximum activities for LysC and Hom3 on aspartate were 4.5 μmol/(min*mgprot) and 1.6 μmol/(min*mgprot), respectively. The Km value for aspartate was estimated with the method of Eadie and Hofstee by measuring initial reaction rates (v) at different substrate concentrations (c) and by extracting the slope of the v versus v/c plot. […]

Substrate in data set [2]: O=C(O)C[C@H](O)C(=O)O
The data set is described as follows: Malate kinase assay, LysC E119N. Particulars: other: malate, pH 7.5, 30° C., average of at least two independent experiments. How it is done:
as §1, §2, §3
(§4) Mutant enzymes were expressed, purified and tested for aspartate and malate kinase activity as described in Example 1.

Substrate in data set [3]: O=C(O)C[C@H](O)C(=O)O
Briefly: Malate kinase assay, LysC E119V. Particulars: other: malate, pH 7.5, 30° C., average of at least two independent experiments. As to the method: as §1, §2, §3, §4

Substrate in data set [4]: O=C(O)C[C@H](O)C(=O)O
The data set is described as follows: Malate kinase assay, LysC E119G. Particulars: other: malate, pH 7.5, 30° C., average of at least two independent experiments. As to the method:
as §1, §2, §3, §4

Substrate in data set [5]: O=C(O)C[C@H](O)C(=O)O
Briefly: Malate kinase assay, LysC E119C. Particulars: other: malate, pH 7.5, 30° C., average of at least two independent experiments. As to the method: as §1, §2, §3, §4

Substrate in data set [6]: O=CC[C@H](O)C(=O)O
Briefly: Malate semialdehyde dehydrogenase assay, Asd E241Q T136N. Particulars: other: malate semialdehyde, reverse biosynthetic direction, pH 9, 0.25 mM NADP, 30° C. How it is done: (§5) Enzymatic assay: Aspartate or malate semialdehyde dehydrogenase activities were assayed in the reverse biosynthetic direction by following the reduction of NADP during the oxidation of aspartate or malate semialdehyde to 4-phospho-(L)-aspartate or 4-phospho-(L)-malate, respectively (Roberts et al., 2003). (L)-aspartate semialdehyde (or (L)-malate semialdehyde)+NADP+Pi→4-phospho-(L)-aspartate (or 4-phospho-(L)-malate)+NADPH
(§6) The assay mixture contained 200 mM Hepes (pH 9), 50 mM K2HPO4, 0.25 mM NADP. Reactions were started by adding (L)-aspartate semialdehyde or (L)-malate semialdehyde. (L)-Aspartate semialdehyde was added in the form of L-aspartic acid β-semialdehyde hydrate trifluoroacetate (maintained at pH3 to prevent degradation) which is a suitable substrate for enzymatic tests of homoserine dehydrogenase and aspartate semialdehyde dehysrogenase (Roberts et al., 2003). Unstable malate semialdehyde was produced freshly prior to the enzymatic tests by the deprotection of the stable malate semialdehyde derivative 2-[(4S)-2,2-dimethyl-5-oxo-1,3-dioxolan-4-yl]acetaldehyde (DMODA). […]
Enzymatic assays were carried out in 96-well flat bottomed microtiter plates in a final volume of 250 μL at 30° C. The reactions were followed by the characteristic absorption of NADPH at 340 nm in a microplate reader (BioRad 680XR). […]

Substrate in data set [7]: O=CC[C@H](O)C(=O)O
Briefly: Malate semialdehyde dehydrogenase assay, Asd E241Q. Particulars: other: malate semialdehyde, reverse biosynthetic direction, pH 9, 0.25 mM NADP, 30° C. As to the method: as §5, §6
(§7) Enzymatic assays were carried out in 96-well flat bottomed microtiter plates in a final volume of 250 μL at 30° C. The reactions were followed by the characteristic absorption of NADPH at 340 nm in a microplate reader (BioRad 680XR).

Substrate in data set [8]: O=CC[C@H](O)C(=O)O
The data set is described as follows: Malate semialdehyde dehydrogenase assay, Asd E241H. Particulars: other: malate semialdehyde, reverse biosynthetic direction, pH 9, 0.25 mM NADP, 30° C. As to the method: as §5, §6, §7

Substrate in data set [9]: O=CC[C@H](O)C(=O)O
The data set is described as follows: Malate semialdehyde dehydrogenase assay, Asd E241M. Particulars: other: malate semialdehyde, reverse biosynthetic direction, pH 9, 0.25 mM NADP, 30° C. How it is done:
as §5, §6, §7

Substrate in data set [10]: O=CC[C@H](O)C(=O)O
The data set is described as follows: Malate semialdehyde dehydrogenase assay, Asd E241A. Particulars: other: malate semialdehyde, reverse biosynthetic direction, pH 9, 0.25 mM NADP, 30° C. As to the method:
as §5, §6, §7

Substrate in data set [11]: O=CC[C@H](O)C(=O)O
Briefly: Malate semialdehyde dehydrogenase assay, Asd E241G. Particulars: other: malate semialdehyde, reverse biosynthetic direction, pH 9, 0.25 mM NADP, 30° C. As to the method: as §5, §6, §7

Substrate in data set [12]: O=CC[C@H](O)C(=O)O
The data set is described as follows: Malate semialdehyde dehydrogenase assay, Asd E241C. Particulars: other: malate semialdehyde, reverse biosynthetic direction, pH 9, 0.25 mM NADP, 30° C. How it is done: as §5, §6, §7

Substrate in data set [13]: O=CC[C@H](O)C(=O)O
Briefly: Malate semialdehyde dehydrogenase assay, Asd E241I. Particulars: other: malate semialdehyde, reverse biosynthetic direction, pH 9, 0.25 mM NADP, 30° C. How it is done:
as §5, §6, §7

B1: E. coli aspartate kinase III LysC, wild type, His-tagged, SEQ ID NO: 4 (Escherichia coli K-12) (protein)
chain: MSEIVVSKFGGTSVADFDAMNRSADIVLSDANVRLVVLSASAGITNLLVALAEGLEPGERFEKLDAIRNIQFAILERLRYPNVIREEIERLLENITVLAEAAALATSPALTDELVSHGELMSTLLFVEILRERDVQAQWFDVRKVMRTNDRFGRAEPDIAALAELAALQLLPRLNEGLVITQGFIGSENKGRTTTLGRGGSDYTAALLAEALHASRVDIWTDVPGIYTTDPRVVSAAKRIDEIAFAEAAEMATFGAKVLHPATLLPAVRSDIPVFVGSSKDPRAGGTLVCNKTENPPLFRALALRRNQTLLTLHSLNMLHSRGFLAEVFGILARHNISVDLITTSEVSVALTLDTTGSTSTGDTLLTQSLLMELSALCRVEVEEGLALVALIGNDLSKACGVGKEVFGVLEPFNIRMICYGASSHNLCFLVPGEDAEQVVQKLHSNLFE
In general, Km refers to the substrate concentration at which the rate is half of its maximum. With B1, the Km in data set [1] is 600 µM.

B2: E. coli aspartate kinase LysC variant E119N, SEQ ID NO: 16 (Escherichia coli K-12; E119N) (protein)
chain: B1 chain with E119N
One may read the Vmax as the top rate of the reaction or transport when substrate is in excess. As to B2, in [2], the Michaelis-Menten constant (Km) was found to be 27100 µM and the Vmax came out at 0.13 µmol/mg/min.

B3: E. coli aspartate kinase LysC variant E119V, SEQ ID NO: 26 (Escherichia coli K-12; E119V) (protein)
chain: B1 chain with E119V
Turning to B3, in data set [3], the Michaelis-Menten constant (Km) was 39700 µM and the Vmax came out at 0.29 µmol/mg/min.

B4: E. coli aspartate kinase LysC variant E119G, SEQ ID NO: 14 (Escherichia coli K-12; E119G) (protein)
chain: B1 chain with E119G
Regarding B4, in [4], the Michaelis constant (Km) is 16000 µM and the maximum rate (Vmax) turned out to be 0.49 µmol/mg/min.

B5: E. coli aspartate kinase LysC variant E119C, SEQ ID NO: 12 (Escherichia coli K-12; E119C) (protein)
chain: B1 chain with E119C
Take B5: in data set [5], the Michaelis constant (Km) is 19700 µM and the Vmax came to 0.97 µmol/mg/min.

B6: E. coli aspartate semialdehyde dehydrogenase Asd variant E241Q T136N, SEQ ID NO: 231 (Escherichia coli K-12; E241Q/T136N) (protein)
chain: MKNVGFIGWRGMVGSVLMQRMVEERDFDAIRPVFFSTSQLGQAAPSFGGTTGTLQDAFDLEALKALDIIVTCQGGDYTNEIYPKLRESGWQGYWIDAASSLRMKDDAIIILDPVNQDVITDGLNNGIRTFVGGNCNVSLMLMSLGGLFANDLVDWVSVATYQAASGGGARHMRELLTQMGHLYGHVADELATPSSAILDIERKVTTLTRSGELPVDNFGVPLAGSLIPWIDKQLDNGQSRQEWKGQAETNKILNTSSVIPVDGLCVRVGALRCHSQAFTIKLKKDVSIPTVEELLAAHNPWAKVVPNDREITMRELTPAAVTGTLTTPVGRLRKLNMGPEFLSAFTVGDQLLWGAAEPLRRMLRQLA
As to B6, the Km in data set [6] was 250 µM.

B7: E. coli aspartate semialdehyde dehydrogenase Asd variant E241Q, SEQ ID NO: 66 (Escherichia coli K-12; E241Q) (protein)
chain: B6 chain with N136T
For the protein B7, in data set [7], the Km came to 520 µM and the Vmax stood at 0.39 µmol/mg/min.

B8: E. coli aspartate semialdehyde dehydrogenase Asd variant E241H, SEQ ID NO: 60 (Escherichia coli K-12; E241H) (protein)
chain: B6 chain with N136T, Q241H
As to B8, in data set [8], the Km was 800 µM and the Vmax came out at 0.10 µmol/mg/min.

B9: E. coli aspartate semialdehyde dehydrogenase Asd variant E241M, SEQ ID NO: 64 (Escherichia coli K-12; E241M) (protein)
chain: B6 chain with N136T, Q241M
Take B9: in data set [9], the Michaelis constant (Km) turned out to be 430 µM and the Vmax was found to be 0.15 µmol/mg/min.

B10: E. coli aspartate semialdehyde dehydrogenase Asd variant E241A, SEQ ID NO: 54 (Escherichia coli K-12; E241A) (protein)
chain: B6 chain with N136T, Q241A
In the case of B10, in data set [10], the Km stood at 378 µM and the Vmax is 0.09 µmol/mg/min.

B11: E. coli aspartate semialdehyde dehydrogenase Asd variant E241G, SEQ ID NO: 58 (Escherichia coli K-12; E241G) (protein)
chain: B6 chain with N136T, Q241G
In the case of B11, in [11], the Km came to 180 µM and the Vmax came out at 0.09 µmol/mg/min.

B12: E. coli aspartate semialdehyde dehydrogenase Asd variant E241C, SEQ ID NO: 56 (Escherichia coli K-12; E241C) (protein)
chain: B6 chain with N136T, Q241C
Take B12: in [12], the Km came to 500 µM and the Vmax came to 0.18 µmol/mg/min.

B13: E. coli aspartate semialdehyde dehydrogenase Asd variant E241I, SEQ ID NO: 62 (Escherichia coli K-12; E241I) (protein)
chain: B6 chain with N136T, Q241I
With B13, in [13], the Km worked out at 230 µM and the Vmax came to 0.10 µmol/mg/min.
